Laboratory results reported in article PMC4716839.

Columns and labels:
[1] = system: Dna2 D278A (nuclease-dead) (Mus musculus); experiment: bead pull-down; settings: DNA preloaded with Rpa, EMSA: 20 mM Tris-HCl pH 8.0, 80 mM NaCl, 0.3 mM TCEP, 0.2 mg/mL BSA, 2% glycerol, on ice 30 min, 0.075 or 0.3 nM 32P-DNA, 4% native PAGE, 1x TB, 4 C, scale: % Dna2 loading relative to reaction lacking Rpa
[2] = system: Dna2 D278A (nuclease-dead) (Mus musculus); experiment: EMSA; settings: Kd only in figure; EMSA: 20 mM Tris-HCl pH 8.0, 80 mM NaCl, 0.3 mM TCEP, 0.2 mg/mL BSA, 2% glycerol, on ice 30 min, 0.075 or 0.3 nM 32P-DNA; 4% native PAGE, 1x TB, 4 C; scale: affinity relative to 5'(dT)24

| Substance | binding signal [2] | also measured |
| --- | --- | --- |
| 3'-(dT)26 overhang DNA, biotinylated | – | binding signal ([1]; negligible loading): 3 |
| 5'(dT)8 overhang DNA | 0.01 | – |
| 5'-(dT)26 overhang DNA, biotinylated | – | binding signal [1]: 45 |
| 5'(dT)6 overhang DNA | 0.01 | – |
